Assays:
[1] = HPLC area percentage method: amount of PTH analogs in freeze-dried preparations and bulk drug (Test Example 1); assay type: physicochemical; details: human PTH (1-34) bulk drug lot, HPLC peak area %
Description: The area percentage method using HPLC is a simple method for assessing the purity of a freeze-dried preparation containing PTH peptide and the amount of analogs. A solution obtained by weighing out 0.25 g of benzalkonium chloride and bringing it to 50 mL by adding 50 mM sulfate buffer (pH 2.3) serves as the loading buffer. Each preparation of the examples and comparative examples is dissolved by 1 mL of physiological saline solution, and a 9:1 mixture of this solution and the loading buffer serves as the sample solution. A quantity of 100 μL of sample solution is tested by HPLC under the following conditions. Furthermore, benzalkonium chloride was used to prevent the peptide that is the target of measurement from attaching to the instrument and the like.
Detector: Ultraviolet absorptiometer (measurement wavelength: 214 nm)
Column: Stainless steel tube 150 mm long having an inner diameter of 4.6 mm packed with 3.5 μm of octadecylsilylated silica gel
Column temperature: Constant temperature near 40° C.
Mobile phase: Mobile phase A: Dissolve 28.4 g of anhydrous sodium sulfate in 900 mL of water and bring to 1000 mL by adding water after adding phosphoric acid to adjust the pH to 2.3. Add 100 mL of acetonitrile to this 900 mL of liquid.
Mobile phase B: Dissolve 28.4 g of anhydrous sodium sulfate in 900 mL of water and bring to 1000 mL by adding water after adding phosphoric acid to adjust the pH to 2.3 Add 500 mL of acetonitrile to 500 mL of this liquid.
Mobile phase feed: Concentration gradient control is provided by varying the mixture ratio of mobile phase A and mobile phase B as follows.
Sample temperature: Constant temperature near 5° C.
Detection time: 45 minutes after injection of the sample solution. However, this is from the back of the solvent peak.
Calculation method: The amount of each PTH analog and the total amount thereof was determined by performing liquid chromatography under the above conditions, measuring each peak area by automatic integration, and performing calculation using Formulas 1 and 2. Furthermore, the total peak area was the sum total of the area of all peaks detected by performing liquid chromatography under the above conditions. […] Amount of each PTH analog (%)=(peak area of each analog/total peak area)×100 Formula 1: Total amount of PTH analogs (%)=(sum total of peak areas of each analog/total peak area)×100 Formula 2:

[2] = Ozone exposure forced degradation of human PTH (1-34) solution (Test Example 2); assay type: physicochemical; details: solution with sucrose and sodium chloride, stirred; ozone approximately 0.08 ppm, about 20 hours
Description: A quantity of 4.00 g of sucrose and 0.20 g of sodium chloride were weighed out and dissolved by adding water for injection to make a placebo solution. […] An environment having an ozone concentration of approximately 0.08 ppm by ozone concentration meter was produced using an ozone generator and a blower (initial wind speed approximately 7.2 m/s) to circulate the ozone and make the concentration uniform in a tray having a 40 cm long×90 cm wide×100 cm high glass door. Approximately 15 mL of the reaction stock solution was dispensed into each 20 mL vial. […] Furthermore, the purity was confirmed in accordance with the test conditions of Test Example 1. The degraded solution was freeze dried, and a solution dissolved by a suitable amount of water for injection was taken as a forced-degradation solution. The analogs were fractionated under the following conditions using this solution.

human PTH (1-34) [lot D]
Amount of (6) Human PTH (1-34)-Met 8 [O] ([1]; listed as D): 0.05% | Amount of (7) Human PTH (1-34)-Met 18 [O] ([1]; listed as D): 0.06%

human PTH (1-34) [lot F]
Amount of (6) Human PTH (1-34)-Met 8 [O] ([1]; listed as F): 0.14% | Amount of (7) Human PTH (1-34)-Met 18 [O] ([1]; listed as F): 0.21%

human PTH (1-34) [lot H]
Amount of (6) Human PTH (1-34)-Met 8 [O] ([1]; listed as H): 0.06% | Amount of (7) Human PTH (1-34)-Met 18 [O] ([1]; listed as H): 0.09%

human PTH (1-34) [lot A]
Amount of (6) Human PTH (1-34)-Met 8 [O] ([1]; listed as A): 0.08%

CC[C@H](C)[C@H](NC(=O)[C@H](CCC(=O)O)NC(=O)[C@H](CO)NC(=O)[C@@H](NC(=O)[C@@H](N)CO)C(C)C)C(=O)N[C@@H](CCC(N)=O)C(=O)N[C@@H](CC(C)C)C(=O)N[C@@H](CCSC)C(=O)N[C@@H](Cc1cnc[nH]1)C(=O)N[C@@H](CC(N)=O)C(=O)N[C@@H](CC(C)C)C(=O)NCC(=O)N[C@@H](CCCCN)C(=O)N[C@@H](Cc1cnc[nH]1)C(=O)N[C@@H](CC(C)C)C(=O)N[C@@H](CC(N)=O)C(=O)N[C@@H](CO)C(=O)N[C@@H](CCSC)C(=O)N[C@@H](CCC(=O)O)C(=O)N[C@@H](CCCN=C(N)N)C(=O)N[C@H](C(=O)N[C@@H](CCC(=O)O)C(=O)N[C@@H](Cc1c[nH]c2ccccc12)C(=O)N[C@@H](CC(C)C)C(=O)N[C@@H](CCCN=C(N)N)C(=O)N[C@@H](CCCCN)C(=O)N[C@@H](CCCCN)C(=O)N[C@@H](CC(C)C)C(=O)N[C@@H](CCC(N)=O)C(=O)N[C@@H](CC(=O)O)C(=O)N[C@H](C(=O)N[C@@H](Cc1cnc[nH]1)C(=O)N[C@@H](CC(N)=O)C(=O)N[C@@H](Cc1ccccc1)C(=O)O)C(C)C)C(C)C [Human PTH (1-34)]
Purity after exposure to ozone atmosphere [2]: approximately 20% | Total amount of human PTH (1-34) analogs after exposure to ozone atmosphere [2]: 80%

human PTH (1-34) [lot B]
Amount of (6) Human PTH (1-34)-Met 8 [O] ([1]; listed as B): 0.07% | Amount of (7) Human PTH (1-34)-Met 18 [O] ([1]; listed as B): 0.09%

human PTH (1-34) [lot G]
Amount of (6) Human PTH (1-34)-Met 8 [O] ([1]; listed as G): 0.17% | Amount of (7) Human PTH (1-34)-Met 18 [O] ([1]; listed as G): 0.23%

human PTH (1-34) [lot E]
Amount of (6) Human PTH (1-34)-Met 8 [O] ([1]; listed as E): 0.05% | Amount of (7) Human PTH (1-34)-Met 18 [O] ([1]; listed as E): 0.07%

Reference: patent US10683335B2, “Freeze-dried preparation containing high-purity PTH and method for producing same” (ASAHI KASEI PHARMA CORPORATION, priority 2011, dated 2020)
